This passage reports D2H/BSA and OD results from patent US6703362 (CYTOGEN, dated 2004).

Read-outs that look alike come from different tables or passages of the source.

Test [1] concerns the target T1, D2H receptor domain (human D2H transporter, amino acid residues 387-685), His-tag fusion protein (human, UniProt Q07837 387-685).
T1 construct: purified under denaturing conditions; also called recombinant D2H; not shown: poly-histidine tag (pET vector) at the NH2-terminal end
T1 sequence: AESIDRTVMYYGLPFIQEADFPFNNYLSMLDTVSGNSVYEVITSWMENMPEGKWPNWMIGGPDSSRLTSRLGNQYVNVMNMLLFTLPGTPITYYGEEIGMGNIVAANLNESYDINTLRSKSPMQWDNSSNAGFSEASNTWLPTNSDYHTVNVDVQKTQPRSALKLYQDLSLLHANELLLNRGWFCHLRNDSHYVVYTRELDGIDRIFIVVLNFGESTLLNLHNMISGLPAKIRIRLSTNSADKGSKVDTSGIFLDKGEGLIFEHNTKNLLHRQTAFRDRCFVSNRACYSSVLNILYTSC
Briefly: phage ELISA, OD on D2H over OD on BSA. Here is the method:
(§1) 6.6. Receptor ELISA Procedure 96 well plates were coated overnight with GIT receptor, BSA and, optionally, IDE (insulin degrading enzyme, an irrelevant His-fusion protein)or hTF. The plates were blocked for one hour with 0.5% BSA-PBS. After clarification, the amplified phage were diluted 1:100 in […] plus 0.05% Tween 20 in PBS and added to the plates. Following incubation of the plates on a rotator for 1 to 2 hours, the plates were washed 5 times with 1% BSA plus 0.05% Tween 20 in PBS. […] After the plates were washed 5 times, as described above, TMB substrate was added to the wells. The plates were read at 650 nm absorbance.

Test [2] deals with T1, D2H receptor domain (human D2H …). The test can be described thus: phage ELISA, plate coated with D2H domain. As to the method:
as §1
A general note: In an ELISA, binding on a coated surface is turned into a signal by an enzyme label.

Test [3] has the same target. The test can be described thus: phage ELISA, OD on D2H over OD on BSA. Here is the method: as §1
(§2) Binding to fixed Caco-2 cells, D2H and BSA was examined.
The source holds these as a separate data set.

The target is the same in test [4]. Briefly: phage ELISA, plate coated with D2H domain. As to the method:
as §1, §2
This is another data set of the same source.

B1: DAB10 (peptide)
peptide: SKSGEGGDSSRGETGWARVRSHAMTAGRFRWYNQLPSDRAETVESCLAKPHTENSFTNVWKDDKTLDRYANYEGCLWNATGVVVCTGDETQCYGTWVPIGLAIPENEGGGSEGGGSEGGGSEGGGTKPPEYGDTPIPGYTYINPLDGTYPPGTEQNPANPNPSLEESQPLNTFMFQNNRFRNRQGALTVYTGTVTQGTDPVKTYYQYTPVSSKAMYDAYWNGKFRDCAFHSGFNEDPFVCEYQGQSSDLPQPPVNAGGGSGGGSGGGSEGGGSEGGGSEGGGSEGGGSGGGSGSGDFDYEKMANANKGAMTENADENALQSDAKGKLDSVATDYGAAIDGFIGDVSGLANGNGATGDFAGSNSQMAQVGDGDNSPLMNNFRQYLPSLPQSVECRPFVFSAGKPYEFSIDCDKINLFRGVFAFLLYVATFMYVFSTFANILRNKES
notes: Assayed as M13 phage clone displaying the insert
On to B1, for which the D2H/BSA in test [1] stood at 4 ratio. The OD in test [2] came out at 0.644 OD.

B2: DAX23 (peptide)
peptide: REWRFAGPPLDLWAGPSLPSFNASSHPRALRTYWSQRPRAETVESCLAKPHTENSFTNVWKDDKTLDRYANYEGCLWNATGVVVCTGDETQCYGTWVPIGLAIPENEGGGSEGGGSEGGGSEGGGTKPPEYGDTPIPGYTYINPLDGTYPPGTEQNPANPNPSLEESQPLNTFMFQNNRFRNRQGALTVYTGTVTQGTDPVKTYYQYTPVSSKAMYDAYWNGKFRDCAFHSGFNEDPFVCEYQGQSSDLPQPPVNAGGGSGGGSGGGSEGGGSEGGGSEGGGSEGGGSGGGSGSGDFDYEKMANANKGAMTENADENALQSDAKGKLDSVATDYGAAIDGFIGDVSGLANGNGATGDFAGSNSQMAQVGDGDNSPLMNNFRQYLPSLPQSVECRPFVFSAGKPYEFSIDCDKINLFRGVFAFLLYVATFMYVFSTFANILRNKES
notes: as for B1
B2 returned a D2H/BSA in test [1] of 5 ratio. The molecule further displayed an OD in test [2] of 0.698 OD.

B3: DCX8 (peptide)
peptide: RYKHDIGCDAGVDKKSSSVRGGCGAHSSPPRAGRGPRGTMVSRLAETVESCLAKPHTENSFTNVWKDDKTLDRYANYEGCLWNATGVVVCTGDETQCYGTWVPIGLAIPENEGGGSEGGGSEGGGSEGGGTKPPEYGDTPIPGYTYINPLDGTYPPGTEQNPANPNPSLEESQPLNTFMFQNNRFRNRQGALTVYTGTVTQGTDPVKTYYQYTPVSSKAMYDAYWNGKFRDCAFHSGFNEDPFVCEYQGQSSDLPQPPVNAGGGSGGGSGGGSEGGGSEGGGSEGGGSEGGGSGGGSGSGDFDYEKMANANKGAMTENADENALQSDAKGKLDSVATDYGAAIDGFIGDVSGLANGNGATGDFAGSNSQMAQVGDGDNSPLMNNFRQYLPSLPQSVECRPFVFSAGKPYEFSIDCDKINLFRGVFAFLLYVATFMYVFSTFANILRNKES
notes: as for B1
In test [3], B3 came in with a D2H/BSA of 3 ratio. In test [4], this molecule came in with an OD of 0.163 OD.

B4: DCX11 (peptide)
peptide: SQGSKQCMQYRTGRLTVGSEYGCGMNPARHATPAYPARLLPRYRAETVESCLAKPHTENSFTNVWKDDKTLDRYANYEGCLWNATGVVVCTGDETQCYGTWVPIGLAIPENEGGGSEGGGSEGGGSEGGGTKPPEYGDTPIPGYTYINPLDGTYPPGTEQNPANPNPSLEESQPLNTFMFQNNRFRNRQGALTVYTGTVTQGTDPVKTYYQYTPVSSKAMYDAYWNGKFRDCAFHSGFNEDPFVCEYQGQSSDLPQPPVNAGGGSGGGSGGGSEGGGSEGGGSEGGGSEGGGSGGGSGSGDFDYEKMANANKGAMTENADENALQSDAKGKLDSVATDYGAAIDGFIGDVSGLANGNGATGDFAGSNSQMAQVGDGDNSPLMNNFRQYLPSLPQSVECRPFVFSAGKPYEFSIDCDKINLFRGVFAFLLYVATFMYVFSTFANILRNKES
notes: as for B1
In test [3], B4 yielded a D2H/BSA of 3 ratio. Moreover, the OD in test [4] worked out at 0.222 OD.
